Experimental findings from the DeepSol protein solubility set are described below.

The nature of the data set: soluble on expression in E. coli; label from the status in PepcDB or PDB records.
Take “MGSDKIHHHHHHMNHLVEVQHMERMNRTNHIQKLDKERYLNLKTGEIGEFKQGEVRSDSLNSLRQTFKKLRYLINTNYVGAGNELFITLTYKENMTDVKRLYSDFKKFMLKFRYKYEKQYGSIDYMTVVEPQERGAWHHHLLVRFNDMTGSKMYIPNNDVAALWGHGFTNMHSLNGVDNIGAYLSAYLADVELTTDNVFLAFDDNVEVVSKVVDGQEKKFIKGGRLHLYPSGMNLYRKSKGIKMPVREEMRYGDIKKVVGSEKPHYVKTLVVEQDDFKNTITYEQYNTKR”: the “soluble on expression in E. coli” value is “not soluble”. In the case of “SNDFNWTSVFNLSHNRNKIVSLNGLLDQTIEGTWFIHKVGLPYHTFYVKEFAGVDPLTGSAQYYLNTKNEDGSYNRELTTDAAKAESIPYKTATPKVSGGFTNILNYKWIDLTFTLTYSLGGYSFDKLGTYIENGSSSIYSSRYNLPAYMMNRWQKPGDQTDIPRFVYGEPATSTNSSRYIHSTDHLRLKNFTLGFTLPNQWTQKLMIDKVRVYFSGNNLLTWAKWKQYDPETPVNGEVFCEAPAMRTFSFGAQLSF”, the “soluble on expression in E. coli” value is reported as “not soluble”.

As to “GSPQAHPVPKDARITHSSGQSFEQMRQECLQRGTLFEDADFPASNSSLFYSERPQIPFVWKRPGEIVKNPEFILGGATRTDICQGELGDCWLLAAIASLTLNQKALARVIPQDQSFGPGYAGIFHFQFWQHSEWLDVVIDDRLPTFRDRLVFLHSADHNEFWSALLEKAYAKLNGSYEALKGGSAIEAMEDFTGGVAETFQTKEAPENFYEILEKALKRGSLLGCFIDTRSAAESEARTPFGLIKGHAYSVTGIDQVSFRGQRIELIRIRNPWGQVEWNGSWSDSSPEWRSVGPAEQKRLCHTALDDGEFWMAFKDFKAHFDKVEICNLTPDA”, the “soluble on expression in E. coli” value is on record as “soluble”.

Turning to “MRHMSGDHAALVLGAGAGRRLGRSKQLLMRDGEPLLRRAARIALLTAPRRCVVVLGADADTLSEVLQDLDIEILRHPDWSEGMGSSLAALRRHVQGDPALRRSLILGCDQPALDAPHLRSLLEEADRAVSGCATSGYSGVRGIPAVVTHTAWADVPLQADSGLRGLFASLDMQSLGCVSAPALALDIDTPADLATAQQRGWVDAELEHHHHHH”, the “soluble on expression in E. coli” value is recorded as “not soluble”. To “MGSDKIHHHHHHMSKILSIIIPTYNAEKFLNKGLSSFLVCRDTDAQTAQHNCKMATEGRFEEIDIDKAILDKLEVIVVNDGTPDKSVEVAQKFVDWYPDTFVIVNKTNGGHGSAINTGVEHVRGKYLKVVDADDWVDTLALKKLITTLQVLEAAQEKQDTRVMDAMLMSYTTYDLQKAAKGDIPYEEHLVVPGTKHDKSVDIQNLGGPYSSQVIAKHFDDVYWGLTFHGILYNTAFYRGLAHKLAEGIFYEDQEYAAVPMAYADTIYVYDEQLYQYRIGDVSQSISMESSLKRLSHYETVIRTLIAEGGNSEEFAPGGKQIWGIKTAKFIDDYYQLCLIKNPDKKMLRDRMEKFTSEIKSADGYIYGLIEKNYKVFRMLNKLHMNEKVYQKVFIPMVHLIRK” belongs “not soluble”.

As to “MGEEFEKLMKKFENVNKDGEIVEDEDEWEEFFKQEEYVKIPKDRIAVLIGKKGQTKKEIEKRTKTKITIDSETGEVWITSTKETEDPLAVWKARDIVLAIGRGFSPERAFRLLNEGEYLEIINLTDIIIGNEKNALPRVRGRIIGRKGRTRQIIEEMSGASVSVYGKTVAIIGNPIQIEIAKTAIEKLARGSPHGSVYRYLERRKKDLELEGAMYYENL”, the “soluble on expression in E. coli” value is “soluble”. Regarding “MVGPARPQIVLFGSSIVQMSFGHGGWGAILSEVYARKADIILRGYYGWNSSRALEVVDQVFPKDAAVQPSLVIVYFGGNDSMAPHSSGLGPHVPLTEYVDNMKKIALHLQSLSDFTRIIFLSSPPVDEAKVRQNQSPYLSEVIRTNDLCKTYSDACVELCQELGLEVVDLFSTFQKADDWKTVCFTDGIHLSAQGSKIVAGEILRVVKEAEWHPSLHWKSMPTEFADDSPYDLVSADGKQTVNSSEWTYFWEEQWD”, the “soluble on expression in E. coli” value was “soluble”. For the sequence “GSMKKWSDTEVFEMLKRMYARVYGLVQGVGFRKFVQIHAIRLGIKGYAKNLPDGSVEVVAEGYEEALSKLLERIKQGPPAAEVEKVDYSFSEYKGEFEDFETY”, the “soluble on expression in E. coli” value was “soluble”. As to “MEEEILSFVSIQSHVSSAGEKPIHVLDENPKFSRLHPSPSNIDSGEDSTSINKSNMESYGFSPVKIIEALIRETTAQGNVNMQRKSLFFPTQISDLFPAILNSKRKTG”, the “soluble on expression in E. coli” value is given as “soluble”.

In the case of “MGSDKIHHHHHHMDRKLLRLYQPLNAYSYNSDSLFLYDFSRPFIKNSGAILDIGSGCGILGLLCARDNPLAIVHLVEKDNKMAFCSQKNALKFPNAQVFEGDFLDFNPPILYDIIVCNPPFYALGSIKSKIKGHARHQSELDFASLVAKVKKCLKPKGYFIFCYEALSLCLVIEGLKSVKLTLETLRFVQSFKDKNAHLMLGAARNNSKSALKVLPPLITHHSKNQSDNTKEVLSIYQTCNTYSIKALLN”, the “soluble on expression in E. coli” value is on record as “not soluble”.

On to “GAMAWGSSWLLLKNLTAQIDGPTLRTLCMQHGPLVSFHPYLNQGIALCKYTTREEANKAQMALNNCVLANTTIFAESPSENEVQSIMQH”, for which the “soluble on expression in E. coli” value is recorded as “soluble”. The entry for “MASPDEDNPGILYNGRFDFSDPNGPKCAWSGSNVELNFYGTEASVTIKSGGENWFQAIVDGNPLPPFSVNATTSTVKLVSGLAEGAHHLVLWKRTEASLGEVQFLGFDFGSGKLLAAPKPLERKIEFIGDSITCAYGNEGTSKEQSFTPKNENSYMSYAAITARNLNASANMIAWSGIGLTMNYGGAPGPLIMDRYPYTLPYSGVRWDFSKYVPQVVVINLGTNDFSTSFADKTKFVTAYKNLISEVRRNYPDAHIFCCVGPMLWGTGLDLCRSYVTEVVNDCNRSGDLKVYFVEFPQQDGSTGYGEDWHPSIATHQLMAERLTAEIKNKLGWLEHHHHHH” is “soluble”; for “MKITFLGAAKTVTGSCFFVETASTKFLVDCGMFQGYSKNNALNEEEFPFNVEELDYIFLTHAHIDHSGRIPRIYIKGFRGQIIATKATVELCAIMLPDSGHIQEYENEWTNRKRLRAGKPPVEPLYTYQDAVNCLELFRKVSYDEVIKINDEIRVRFRDAGHILGSAIIEMWINERGEEIKIVFSGDLGNKDIPILRDPSIIESADYLVIESTYGNRLHNERVDKAEYFLNLINSTIEKGGNVIIPSFAAGRTQELIYELNKKKEVYDEKLKMLFATPVYIDSPMAISATEVFRNNLDCYDEEAREYIENGDNPLDFPGLQFTRTAEESKALNERKESSIIIAASGMCEAGRIRHHLKHNLWRKDSTIIFVGYQAEGTLGRRLLDGAKKVRLFGEEISVEARIEMIEGFSGHADKEGLLKWIERFNRKPKKIFIVHGEEDAMIEFSEEINRRFNIETVIPSRGESFILNAHNVIAIDEKVRPDNSFRILQVVEKLENIKEEVEELSYILKSDLKQDKTDLELDELMAKLKNIEKSILEALK” it is “not soluble”; for “MGSDKIHHHHHHMAAFQTAAQLARAVQSGETTPQQLLHGALARAEAVRGLNALVSLNSHAEEQAAAVQGRMQAGETLPLAGVPIVVKDNINVTGTRTTCGSRMLANYVSPYTATAAQKLQGAGAVIVGKANMDEFAMGSSTESSASGPTLNPWDHERVPGGSSGGSAVAVAAGISPVSLGSDTGGSVRQPAALCGVYGFKPTYGRVSRYGLVAYASSLDQIGPFARSAEDLALLMNVIAGHDPRDATSLDAPARFAVGGADSLRGLRVGVIRESLGGNTPGVEAALGATLDALRGAGAVVGEVSIPELEYAIAAYYLIAMPEASSNLARYDGMVYGERVPGGDVTRSMTLTREQGFGQEVQRRILLGTYALSSGYYDAYYAKAMKVRRLIADEFTTAFGQYDVLVTPTSPFPAFRRGEKASDPLAMYAADVDTVAVNLAGLPALSVPAGFEEVDGKRLPVGVQFIAPALQDERLLALAGALEAVGAVQLEMPQD” it is “not soluble”. With “MGSDKIHHHHHHMTPLAPHEASQDESAIAERIASAMPRMTPIHRRMGEFVLANPFRAATMRIDELAQAVNASIATANRFAKALGFDGYPAMRAALVRGFEATLGPVERLRSAQEQEQEQGVRGAAWIDAVFDQAIENIENTRARLDATDVEAAVEAIVGARRVLILGAGSSAFLTGLMEHGLSVCHDNVQSLALLGGPTHAARRLYTADSRDLVIALAFPRYVKDTIELARRAAARGARVLGISDGPGSPLAPVASLNLYVKAQRRFAATSEAAVLTMIEALIDAVALRTHRSAKSAAEMTEFLLPWLMQPPAALPAANPSSSGPKKS”, the “soluble on expression in E. coli” value is on record as “not soluble”. Consider “MKKQLLIVDGYNMIGAWPELVQLKKQERLEDARELLLSRLSNYAKYEGLEIIVVFDAQLVPGIQQTYKKYLLTVVFTKEDETADSYIERLAGEKNDRLTQVTVATSDLAEQWVVFSQGALRTSANELYKAVQKTEKTIAIHATDIHFQQFRRNSPWNVEQLSKLSEKLEELSQKKD”, for which the “soluble on expression in E. coli” value was “not soluble”. For the sequence “MGSSHHHHHHSSGLEVLFQGPLHMGIKYQKIGDVVIVKKELSEDEIREIVKRTKCKAILLYTTQITGEFRTPHVKILYGKETETIHKEYGCLFKLDVAKIMWSQGNIEERKRMAFISNENEVVVDMFAGIGYFTIPLAKYSKPKLVYAIEKNPTAYHYLCENIKLNKLNNVIPILADNRDVELKDVADRVIMGYVHKTHKFLDKTFEFLKDRGVIHYHETVAEKIMYERPIERLKFYAEKNGYKLIDYEVRKIKKYAPGVWHVVVDAKFERI”, the “soluble on expression in E. coli” value is “soluble”. Take “MAHHHHHHMYNILQFVLKAYSIQNEEPSCDVENVKDLLNDQLCYVLYNITNYSSKYQWILILWAPEKNSILIDDIHENKEKKNNFIHIVDKEIYKYNNASKKINKLLYYSFKQNFLDIIFNNYDIPLFEINNFVMLEKCIHDCNNKYYNYTNCPTLLNREKTKPKNDSFDIYNQYNLQKYYLLNIQLRSINNIIILNESSLCHDMKRLLEEPNICLNLFYIDVHNYKIISTHLNIDNIEQVHSIIKENKIFYVIYKVLDTYTFFYICNEICTNTKQKFLYSFFKPYLLEYLKKIKNIPIFLSIELSKTKHLIRFINADLKKNKNKNSN”: the “soluble on expression in E. coli” value is reported as “soluble”.

Regarding “MEKPTRLALLKEIAEFLNEETEIYSMMQGALRLLINGSDFSTGWIFYIDEEGHHDLVSSVDLPEALSKNHCYYLTNGSCWCVQAYQNHKLTKASNIINCSRINLANHAYDKETNHITHHATVPLQSGSERFGLLNVASPNKEHYSEEDLELLESVAFQIGSAIKRIQLTNKEKENAKINERNRLARDLHDSVNQMLFSLKLTAHAAKGITTDEQAQRAFKTIEETSQNAVNEMRALIWQLKPVGLEQGLIHALHYYSKMLGLDLKVTINGLIDLSNDIEENVYRIIQEAMNNVIKHAKTNKVYLDLSQNVDYLEVDIRDNGQGFDTQSINTFLFNGLKNIKQRTQYLNGKVTIESKINQGTRIYIKIPLKLKEHPYA”, the “soluble on expression in E. coli” value was “not soluble”. Consider “MSLNPKAKFAVIDDLETSRLHISHILQEDGFTVDLFDSATQFLLMKDEILDYAGLIIDIHMPGYNGYELAETIHAMFGTSAPPFIFISASPESIRHDRFNTEHMWQGFAKPMDKNRFIDSIRVLSDKSSLKTEAFEPASVLLVEDEPINAEVVKTMLERNGHTVEVATTGAAALHLATTVPFNLILMDINLPDMSGIETTRCIKAQGVDTEIVALTGNAYEEDKLKTKEAGMSYHLVKPVMYHELNNVIKLALRVAHEGHHHHHH”, for which the “soluble on expression in E. coli” value is reported as “soluble”.
